Test system: MS2 coat protein
Experiment: apparent KD of MS2 coat protein; designed switch direction (-1 OFF switch, 1 ON switch): -1; higher = weaker reporter binding
In short: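 Three titration conditions were used: no input, 200 uM small-molecule ligand, and an oligonucleotide input. In each, SNAP-549-labelled MS2 coat protein was raised from 0.7 or 1.5 nM, doubling, to 3 µM over designed RNA switches transcribed on Illumina chips by stalled E. coli RNA polymerase. Curve fits of normalised cluster fluorescence gave values whose per-design median over clusters is the apparent KD.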

[1] = Eterna round: R95, input ligand: microRNA oligo, concentration not stated
[2] = input ligand: microRNA oligo, concentration not stated
[3] = Eterna round: R95, input ligand: FMN 200 uM
[4] = Eterna round: R95, input ligand: none

Sequence | apparent KD of MS2 coat protein (input ligand: FMN 200 uM) | apparent KD of MS2 coat protein (input ligand: none) | apparent KD of MS2 coat protein [1] | further results
UGUAACCGAGGAUAUACAUGAGGAUCACCCAUGUAAUGUAGUAUAGUGUAUGUAAGAUGUAGAAGGUGGGAUGU (Eterna round: R97, puzzle: Exclusion 3) | 40.2 nM | 45.7 nM |  | 
UUGGUGUCAGGAUAUGCUUAAUGUGUUUUAUUAUAAUAUAUACAUGAGGAUCACCCAUGUAGAAGGGACAUUGU [LRO-Excl2-09-Fireball XL5] (Eterna round: R97, puzzle: Exclusion 2) | 48 nM | 48.5 nM |  | 
CUGAGCUGAGGAUAUACAUGAGGAUCACCCAUGUGAAGUAGCUUGCGUACAGGCAGAUGUAGAAGGCAGUUCGG [JL-ex3-3.31 Brourd mod] (puzzle: Exclusion 3) |  |  | 34.6 nM | 
ACAUGAGGAUCACCCAUGUAAUCAUGAUGGCUGAUGUAGAGCUAGGAUAUGAGUGGCUUUCUAUCUCAGAAGGAGCUUGACUGG [Deportation 42 - Jieux - Exclusion NG 3] (Eterna round: R96, puzzle: Exclusion NG 3) | 28.9 nM | 37.2 nM |  | apparent KD of MS2 coat protein [2]: 25.5 nM
AAAUAGCUAGAGGAUAUCGGAUAGAAUUUAUUACGAGAAGGUUAGACAUGAGGAUCACCCAUGUUCUGUUGGGA [EX6 #22] (Eterna round: R97, puzzle: Exclusion 6) | 70 nM | 33.8 nM |  | 
CUGCAACAUGAGGAUCACCCAUGUCAGGAUAUUCCAAAAUCGUCGAAAGACGAUAACAGAAGAAGGGACAGUAG [Fiskxlusion 7 - Jieux - Exclusion 1] (Eterna round: R97, puzzle: Exclusion 1) | 44 nM | 35.6 nM |  | 
GAUUAACAUGAGGAUCACCCAUGUGAGGAUAUGGACUUGCCCACUUUCCCAUUAGAGUCUAGAAGGCGCAUCUG [1986#24] (Eterna round: R97, puzzle: Exclusion 1) | 37.2 nM | 37.9 nM |  | 
GUUUAAUUAGGAUAUGCAAGCGGUGUUAGAAAAGUAUCCAAACAUGAGGAUCACCCAUGUAGAAGGAGUUGUUG [Eternabot (L2) Solution 59] (Eterna round: R97, puzzle: Exclusion 2) | 28.5 nM | 30.2 nM |  | 
GAAAAGUGAGGAUAUGGUAAAAGAAAAAGAAAAAAAAAACUCCAGAAGGCACAUGAGGAUCACCCAUGUAAAAG [salish99_ex4_r3_004] (puzzle: Exclusion 4) |  |  | 24.5 nM | apparent KD of MS2 coat protein [3]: 33.5 nM; apparent KD of MS2 coat protein [4]: 24 nM
UAUUAGUAAGGAUAUCCCACGUAGGACUUCGGUCCUACGUGGGAGAAGGUACAUGAGGAUCACCCAUGUCUAUU [Mod of Fisker 13 - Jieux - Exclusion 4] (Eterna round: R97, puzzle: Exclusion 4) | 16.6 nM | 14.9 nM |  | 
GCUAUUAGAGGAUAUACAUGAGGAUCACCCAUGUGGUCAAGUCGGUGCCAACUGUUAGGUAGAAGGCUGGAGCC [Eternabot (L1) Solution 76] (Eterna round: R97, puzzle: Exclusion 3) | 44.8 nM | 49.7 nM |  | 
AGCUUUUUGUUUUUGGGUGACAUGAGGAUCACCCAUGUCUUAUGGGCCCAAUAAUAAUAAAAUAAAAGGGACCCACG [-20.8, -41.27, a 31%] (Eterna round: R97, puzzle: Sensor, turn-off variant 1) | 457 nM | 208 nM |  | 
UUCCUCGUUGUGAGGAUAUCGUAUUCUUUUUGUUACGAGAAGGCACAUGAGGAUCACCCAUGUUUCUUGAUGUU [JR_BMOE4_Sub069] (puzzle: Brourd's mod of Exclusion 4) |  |  | 19.6 nM | 
AGCGAAUGAGGAUAUUAUCUCACCUACAUGAGGAUCACCCAUGUGGUCGCACCUGGCGAGUGAGAAGGCAUUCGGA [Eternabot (Original) Solution 41] (Eterna round: R97, puzzle: Exclusion 5) | 112 nM | 49.8 nM |  | 
AGCCAAGCAGGAUAUGCCCGGGAUAACAUGAGGAUCACCCAUGUGACCGAUUGAUGUCCUGCAGAAGGGCUUGGGA [Erxesoan] (puzzle: Exclusion 5) |  |  | 15.8 nM | 
ACAUGUCAUUGAGGAUAUUGCACACAUGAGGAUCACCCAUGUAUACGGAUGCUCUUCCGUGAGUUCGAGAAGGCGAUGUACAUU [Ex NG2 #90] (Eterna round: R96, puzzle: Exclusion NG 2) | 71.3 nM | 60.7 nM |  | apparent KD of MS2 coat protein [2]: 38.6 nM
GCACGGUAAGUGAGGAUAUACCUCUGGAUACAGAGGUAGAAGGCACAUGAGGAUCACCCAUGUUCCAGCCGUGC [Fiskers BMX 4 - 86] (puzzle: Brourd's mod of Exclusion 4) |  |  | 14.7 nM | 
AGCAUGUAAGGAUAUGUAACGCGGCGUUCAUUCGUCGUCCCACAGAAGGUACAUGAGGAUCACCCAUGUGCUCC [Veorla] (puzzle: Exclusion 4) |  |  | 39 nM | 

Sequence | apparent KD of MS2 coat protein (input ligand: FMN 200 uM) | apparent KD of MS2 coat protein (input ligand: none) | apparent KD of MS2 coat protein [1] | further results
UUUUGACAUGAGGAUCACCCAUGUUAGGAUAUCUUAAGGGAUGGAACAGGGUCGGAACAGAGAAGGAGCGUGGG [EX1 B.26] (Eterna round: R97, puzzle: Exclusion 1) | 82.4 nM | 47.9 nM |  | 
UGUGCGUCAGGAUAUUCUAUUUAUUACAUGAGGAUCACCCAUGUGAAUGUACAAGGGUGUGAAGAAGGGACUUGUG [LRO-Excl5-03-mod A17d by Omei] (Eterna round: R97, puzzle: Exclusion 5) | 808 nM | 1090 nM |  | 
CAGGAUAGAGGAUAUACAUAGAUACAGAUUCGUGUAAUCCUACAUGAGGAUCACCCAUGUAGAAGGCUAUCCUG [Fiskers Ex 2 - 20] (puzzle: Exclusion 2) |  |  | 13.2 nM | 
AAGUUCAGAGGAUAUGCCCAGCUCGACAUGAGGAUCACCCAUGUAUCCACAGAACGUACGGCAGAAGGCUGCAAUA [Eternabot (Original) Solution 9] (Eterna round: R97, puzzle: Exclusion 5) | 69.4 nM | 86 nM |  | 
ACCUCACAUGAGGAUCACCCAUGUUAGGAUAUCUCGGCGCCCUGUAGGCAGUAGCGCCAGAGAAGGAACGUGCA [Gearorso] (puzzle: Exclusion 1) |  |  | 19.8 nM | 
GGUCGUCAAGUCAGGAUAUCGUUUGGUCGGUGUAACGAGAAGGGACAUGAGGAUCACCCAUGUCGUCUCAUCAG [Ex4 #28] (Eterna round: R97, puzzle: Brourd's mod of Exclusion 4) | 29.3 nM | 20.4 nM |  | 
GAGAAACAUGAGGAUCACCCAUGUGAGGAUAUGCGUACGUUGUCCGUAGGCGACGUGCGCAGAAGGCGCAAAAG [Mat - Mod of JL D87] (puzzle: Exclusion 1) |  |  | 53.5 nM | apparent KD of MS2 coat protein [3]: 59 nM; apparent KD of MS2 coat protein [4]: 96 nM
GUUUACAAGCUAAGAUCCUACAUGAGGAUCACCCAUGUGGUCCGGUGACGUGAGUCACCGGACUUAGCUCGUCUUGG [salish99_S_TOV1_R5_090] (Eterna round: R97, puzzle: Sensor, turn-off variant 1) | 66 nM | 66.7 nM |  | 
AUUAUGUAAGGAUAUCUUACAUGUGACUUCGGUCACUGUUAAGAGAAGGUACAUGAGGAUCACCCAUGUAGAAC [Ex4-3: 47] (puzzle: Exclusion 4) |  |  | 18.1 nM | 
GAGAAGUGAGGAUAUGCGGUAAGGAUGAAAGGAAGGAAUGAGUAGAAGGCACAUGAGGAUCACCCAUGUAGAGU [JR_Exclu4_Sub081] (puzzle: Exclusion 4) |  |  | 18.5 nM | apparent KD of MS2 coat protein [3]: 19.5 nM; apparent KD of MS2 coat protein [4]: 21.1 nM
AGUACUAACACGUUUGUGUUAGUACAAUAAGCUUGUGAAACAUGAGGAUCACCCAUGUCCUCAUAAGCUCGUCUUAU [salish99_TOv2_r3_069] (puzzle: Sensor v3, turn-off variant 2) |  |  | 567 nM | apparent KD of MS2 coat protein [3]: 17.4 nM; apparent KD of MS2 coat protein [4]: 16.3 nM
AAUAACAGAGGAUAUACUAUUUUAUGUGUUUAUUGUUUUGAACAUGAGGAUCACCCAUGUAGAAGGCUGAAUGA [JMF 67] (puzzle: Exclusion 2) |  |  | 25.8 nM | 
CGUGUGUGAGGAUAUGACAAUGGUAUCUUCGGAUACCAUUGUCAGAAGGUACAUGAGGAUCACCCAUGUAGAUC [Exclusion 4 - Mod Brourd Ex 4-3: 20 v.2] (Eterna round: R96, puzzle: Exclusion 4) | 115 nM | 59.8 nM |  | apparent KD of MS2 coat protein [2]: 41.4 nM
GAGAAACAUGAGGAUCACCCAUGUGAGGAUAUGAGCACGCCGGUGACGGUGAUAAGAAUCAGAAGGCACAUUAA [Mat - Exclusion 1 - JL Mod - D34] (Eterna round: R97, puzzle: Exclusion 1) | 95.7 nM | 38.8 nM |  | 
UAUUAGCAAGUAAGAUCCCACAUGAGGAUCACCCAUGUGCUCGUCAUAUCAGGUACUGUGAGGAAACUCACGGUACG [Sensor-V1 #86] (Eterna round: R97, puzzle: Sensor, turn-off variant 1) | 127 nM | 169 nM |  | 
CAAAACCGAGGAUAUACUUCGGAGAUAAAGGUAAGUCAAAGACUUGAGGAUCACCCAAGUAGAAGGCGGACGGA [Laeded] (Eterna round: R97, puzzle: Exclusion 2) | 95.5 nM | 22.4 nM |  | 
UUUAUUAAUUAAUAUAAUAAGAUCACAUGAGGAUCACCCAUGUAGGAUAUCAGCUCGUUUAGAGCUGAGAAGGACAUAAUUAUA [ExNG3/1-B2] (Eterna round: R96, puzzle: Exclusion NG 3) | 135 nM | 35.9 nM |  | apparent KD of MS2 coat protein [2]: 33.6 nM
UUUAAUUUUUUUUUUUUACAAGCUUUUUGCUCGUCUUAUACAUGAGGAUCACCCAUGUAAGUGAGGGAUAAAUUAUC [JMF 40] (puzzle: Sensor v3, turn-off variant 2) |  |  | 22.8 nM | apparent KD of MS2 coat protein [3]: 15.6 nM; apparent KD of MS2 coat protein [4]: 15.6 nM

Reference: the supplement of paper PMC9170038
